The source of these data is the supplement of paper PMC9112550, “Optimization of the antimicrobial peptide Bac7 by deep mutational scanning” (BMC Biology, 2022).

The subject of the data set is Escherichia coli TOP10. Nature of the data set: shrunken log2 fold change of peptide-encoding DNA abundance (4.5 h post-induction vs induction); higher = less antimicrobial activity (less host growth inhibition). The note with it: time post-induction: 4.5 h; library: site-saturation at positions 5, 18, 19, 20.
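Further: peptides expressed intracellularly from a pBAD plasmid library in pooled LB shake-flask culture, induced with 0.3% L-arabinose, DNA abundance read by NGS, three biological replicates, DESeq2 with apeglm shrinkage.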

Turning to RRIRGRPPRLPRPRPRPFQKPRP, the “shrunken log2 fold change” value is -0.0668.

Consider RRIRARPPRLPRPRPRPNCVPRP, for which the “shrunken log2 fold change” value came to 0.23.

Consider RRIRARPPRLPRPRPRPLILPRP, for which the “shrunken log2 fold change” value was -0.252.

Consider RRIRFRPPRLPRPRPRPVLNPRP, for which the “shrunken log2 fold change” value is -0.282.

As to RRIRLRPPRLPRPRPRPGGIPRP, the “shrunken log2 fold change” value was -0.0154.

With RRIRPRPPRLPRPRPRPMGWPRP, the “shrunken log2 fold change” value turned out to be 0.217.

As to RRIRGRPPRLPRPRPRPNGCPRP, the “shrunken log2 fold change” value stood at 0.12.

On to RRIRFRPPRLPRPRPRPLRFPRP, for which the “shrunken log2 fold change” value came to 0.186.

On to RRIRERPPRLPRPRPRPNNYPRP, for which the “shrunken log2 fold change” value is -0.821.

RRIRGRPPRLPRPRPRPTVCPRP: the “shrunken log2 fold change” value turned out to be 0.798.

As for RRIRGRPPRLPRPRPRPHMKPRP, the “shrunken log2 fold change” value was found to be 0.103.

RRIRERPPRLPRPRPRPEFQPRP: the “shrunken log2 fold change” value was -0.0353.

In the case of RRIRNRPPRLPRPRPRPTFAPRP, the “shrunken log2 fold change” value is 0.343.

As to RRIRVRPPRLPRPRPRPTLRPRP, the “shrunken log2 fold change” value is 0.102.

Turning to RRIRSRPPRLPRPRPRPNSGPRP, the “shrunken log2 fold change” value was determined as 0.0845.

With RRIRHRPPRLPRPRPRPRCQPRP, the “shrunken log2 fold change” value was found to be 0.219.

For RRIRWRPPRLPRPRPRPVTVPRP, the “shrunken log2 fold change” value was -0.194.

Regarding RRIRVRPPRLPRPRPRPEAKPRP, the “shrunken log2 fold change” value came out at 0.293.

As for RRIRERPPRLPRPRPRPSCWPRP, the “shrunken log2 fold change” value stood at 0.101.

RRIRSRPPRLPRPRPRPNAFPRP: the “shrunken log2 fold change” value is -0.0168.

As to RRIRWRPPRLPRPRPRPEEYPRP, the “shrunken log2 fold change” value was found to be 0.113.

For the sequence RRIRFRPPRLPRPRPRPAMRPRP, the “shrunken log2 fold change” value was 0.307.

As to RRIRIRPPRLPRPRPRPRKYPRP, the “shrunken log2 fold change” value is -0.561.

In the case of RRIRERPPRLPRPRPRPQCFPRP, the “shrunken log2 fold change” value is -0.702.

For RRIRPRPPRLPRPRPRPCISPRP, the “shrunken log2 fold change” value is -0.0753.

With RRIRGRPPRLPRPRPRPKKLPRP, the “shrunken log2 fold change” value worked out at 0.39.

Take RRIRVRPPRLPRPRPRPRGLPRP: the “shrunken log2 fold change” value is 0.307.

For the sequence RRIRDRPPRLPRPRPRPDCCPRP, the “shrunken log2 fold change” value was -0.0205.

As to RRIRYRPPRLPRPRPRPSAYPRP, the “shrunken log2 fold change” value is -0.854.

With RRIRCRPPRLPRPRPRPQIIPRP, the “shrunken log2 fold change” value was -0.853.

As to RRIRMRPPRLPRPRPRPTYCPRP, the “shrunken log2 fold change” value was -0.271.

For the sequence RRIRVRPPRLPRPRPRPYGTPRP, the “shrunken log2 fold change” value was -0.13.

In the case of RRIRLRPPRLPRPRPRPEVPPRP, the “shrunken log2 fold change” value was found to be 0.0129.

As to RRIRCRPPRLPRPRPRPYSTPRP, the “shrunken log2 fold change” value was -0.818.

For the sequence RRIRERPPRLPRPRPRPNCRPRP, the “shrunken log2 fold change” value was -0.238.

On to RRIRMRPPRLPRPRPRPPCMPRP, for which the “shrunken log2 fold change” value came out at 0.181.

As to RRIRYRPPRLPRPRPRPVNAPRP, the “shrunken log2 fold change” value is -0.361.

With RRIRIRPPRLPRPRPRPKNVPRP, the “shrunken log2 fold change” value is -0.139.

RRIRNRPPRLPRPRPRPVWIPRP: the “shrunken log2 fold change” value is -0.111.

Regarding RRIRKRPPRLPRPRPRPQYMPRP, the “shrunken log2 fold change” value came to 0.0201.

For RRIRKRPPRLPRPRPRPQRDPRP, the “shrunken log2 fold change” value was 0.858.

In the case of RRIRARPPRLPRPRPRPYNCPRP, the “shrunken log2 fold change” value is -0.0254.

On to RRIRYRPPRLPRPRPRPYRHPRP, for which the “shrunken log2 fold change” value is -1.4.

Regarding RRIRNRPPRLPRPRPRPYEYPRP, the “shrunken log2 fold change” value was -0.675.

Regarding RRIRFRPPRLPRPRPRPLFIPRP, the “shrunken log2 fold change” value was -0.652.

Regarding RRIRLRPPRLPRPRPRPWLDPRP, the “shrunken log2 fold change” value is -0.233.

RRIRVRPPRLPRPRPRPFRHPRP: the “shrunken log2 fold change” value was -0.185.

Turning to RRIRIRPPRLPRPRPRPRSNPRP, the “shrunken log2 fold change” value is -0.0529.

In the case of RRIRHRPPRLPRPRPRPFWVPRP, the “shrunken log2 fold change” value was -0.00136.

Take RRIRVRPPRLPRPRPRPWLYPRP: the “shrunken log2 fold change” value is -0.157.

For RRIRDRPPRLPRPRPRPARSPRP, the “shrunken log2 fold change” value came out at 0.0403.

In the case of RRIRPRPPRLPRPRPRPTYPPRP, the “shrunken log2 fold change” value is -0.137.

Consider RRIRGRPPRLPRPRPRPWWPPRP, for which the “shrunken log2 fold change” value came to 0.404.

Turning to RRIRQRPPRLPRPRPRPFCTPRP, the “shrunken log2 fold change” value was -0.246.

RRIRCRPPRLPRPRPRPYVIPRP: the “shrunken log2 fold change” value was -0.381.

RRIRFRPPRLPRPRPRPNNWPRP: the “shrunken log2 fold change” value was -0.369.

With RRIRARPPRLPRPRPRPLKEPRP, the “shrunken log2 fold change” value is 0.218.

Turning to RRIRHRPPRLPRPRPRPMCPPRP, the “shrunken log2 fold change” value is -0.0218.

With RRIRTRPPRLPRPRPRPKDSPRP, the “shrunken log2 fold change” value was 0.0052.

Turning to RRIRFRPPRLPRPRPRPSCLPRP, the “shrunken log2 fold change” value is -0.502.

As for RRIRQRPPRLPRPRPRPMQCPRP, the “shrunken log2 fold change” value is -0.409.

Turning to RRIRPRPPRLPRPRPRPCSTPRP, the “shrunken log2 fold change” value was -0.173.

As to RRIRYRPPRLPRPRPRPRDMPRP, the “shrunken log2 fold change” value was -0.339.

For the sequence RRIRVRPPRLPRPRPRPPWGPRP, the “shrunken log2 fold change” value came out at 0.0932.

Consider RRIRQRPPRLPRPRPRPMSSPRP, for which the “shrunken log2 fold change” value was -0.0871.

RRIRGRPPRLPRPRPRPLTKPRP: the “shrunken log2 fold change” value was 0.664.

In the case of RRIRPRPPRLPRPRPRPHFRPRP, the “shrunken log2 fold change” value came to 0.0655.

On to RRIRGRPPRLPRPRPRPVKSPRP, for which the “shrunken log2 fold change” value stood at 0.0201.

For RRIRERPPRLPRPRPRPIVMPRP, the “shrunken log2 fold change” value was -0.86.

For RRIRTRPPRLPRPRPRPSGRPRP, the “shrunken log2 fold change” value stood at 0.0348.

On to RRIRWRPPRLPRPRPRPCHWPRP, for which the “shrunken log2 fold change” value was -0.116.

As for RRIRARPPRLPRPRPRPTQRPRP, the “shrunken log2 fold change” value was 0.915.

Consider RRIRYRPPRLPRPRPRPFPVPRP, for which the “shrunken log2 fold change” value is -0.149.

For RRIRERPPRLPRPRPRPECAPRP, the “shrunken log2 fold change” value worked out at 0.586.

Take RRIRRRPPRLPRPRPRPCQLPRP: the “shrunken log2 fold change” value is -0.231.

As for RRIRPRPPRLPRPRPRPENSPRP, the “shrunken log2 fold change” value was -0.0155.

Take RRIRCRPPRLPRPRPRPWNGPRP: the “shrunken log2 fold change” value is -0.0552.

Turning to RRIRLRPPRLPRPRPRPCSRPRP, the “shrunken log2 fold change” value was 0.06.

For the sequence RRIRIRPPRLPRPRPRPNQIPRP, the “shrunken log2 fold change” value was -0.713.

In the case of RRIRQRPPRLPRPRPRPARLPRP, the “shrunken log2 fold change” value was found to be 0.0512.

With RRIRTRPPRLPRPRPRPYIWPRP, the “shrunken log2 fold change” value was -0.329.

Regarding RRIRCRPPRLPRPRPRPGSDPRP, the “shrunken log2 fold change” value is -0.0369.

Consider RRIRTRPPRLPRPRPRPTEPPRP, for which the “shrunken log2 fold change” value came out at 0.045.

For RRIRARPPRLPRPRPRPQNLPRP, the “shrunken log2 fold change” value is -0.564.

On to RRIRGRPPRLPRPRPRPPLSPRP, for which the “shrunken log2 fold change” value worked out at 0.897.

Regarding RRIRPRPPRLPRPRPRPDFVPRP, the “shrunken log2 fold change” value was -0.107.

Regarding RRIRGRPPRLPRPRPRPFMRPRP, the “shrunken log2 fold change” value was found to be 0.567.

For RRIRYRPPRLPRPRPRPLKPPRP, the “shrunken log2 fold change” value is -0.696.

Take RRIRKRPPRLPRPRPRPHWDPRP: the “shrunken log2 fold change” value is 0.0835.

Consider RRIRNRPPRLPRPRPRPLGMPRP, for which the “shrunken log2 fold change” value was -0.109.

As to RRIRQRPPRLPRPRPRPESHPRP, the “shrunken log2 fold change” value was -0.159.
